Assay results as given in PMC11542851 (PLOS Pathogens, 2024).

Target: T1, SARS-CoV-2 RBD subunit (recombinant) (SARS-CoV-2 Wuhan-Hu-1, UniProt P0DTC2)
Test: not given
Conditions: not given

Binder | binding result
C68.233 (antibody, V domains shown) VH: QVQLVQSGPEVKKPGTSVKVSCKASGFTFTTSAVQWVRQARGLRLEWIGWIVVGSGNTNYGQKFQERVTITRDMSTSTAYMELSSLRSEDTAVYYCAAPHCNRTNCHDGFDIWGQGTMVTVS VL: EIVLTQSPGTLPLSPGERATLSCRASQSVRSSYLAWYQQKPGQAPRLLIYGASSRATGIPDRFSGSGSGTDFILTISRLEPEDFAVYSCQQYGSSPWTFGQGTKVEIK | binds
C68.100 (antibody, V domains shown) VH: EVQLVQSGAEVKKPGESLRISCKGSGYIFNSYWIIWVRQMPGKGLEWMGRIDPSDSYTNYSPSFQGHVTMSVDKSINTAYLQWSSLKASDTAMYYCARVRFGELSWDTFDYWGQGTLVTVSS VL: DIQVTQSPSSLSASVGDRVTITCRASQSMSYYLNWYQQKPGKAPKLLISAASSLQSGVPSRFSGSGSGTDFTLTISSLQPEDFATYYCQQSYSTPYTFGQGTKLEIK | binds
C68.102 (antibody, V domains shown) VH: QLQLQESGPGLLKPSETLSLTCTVSGGSISSSRYYWGWIRQPPGKGLEWIGSVYYSGTTYYNPSLKSRVTISVDASKNQFSLRLSSVSAADTAVYYCARRLGAIWDWGQGTRVTVSS VL: DIQLTQSPSSLSASVGDRVTITCRASQGISNSLAWYQQKPGKAPKLLLYAASTLESGVPSRFSGSGSGTDYTLTISSLQPEDFAAYYCQQYYSTPTFGQGTKVEIK | binds
C68.123 (antibody, V domains shown) VH: EVQLVESGGGLVQPGGSLRLSCSASGFTFSSYTLHWVRQAPGKGLEYVSSISSNGGSTYYADSVKGRFTISRDNSKNTLFLQMSSLRAEDTAIYYCVKGVWLHDFWSGYPSRWGQGTPVTVSS VL: DIQLTQSPSTLSASVGDRVTITCRASQSISNWLAWYQQKPGKAPNLLIYDASSLESGVPSRFSGSGSGTEFTLTISSLQPDDFATYYCQQYNSYPWTFGQGSKVDIK | binds
C68.136 (antibody, V domains shown) VH: EVQLLESGGGLVQPGGSLRLSCAASGFTFSIYAMSWVRQAPGKGLEWVSGISGSGGSTYYADSVKGRFTLSRDNSKNTLFLQMNSLRAEDTAVYYCAKGEGSVVVVSAGVWGKGTTVTVSS VL: DIQLTQSPSSLSASVGDRITITCQASQDISKSLNWYQQKPGKAPKVLIYDASNLETGVPSRFSGSGSGTDFTFTISSLQPEDIATYYCQQYDNLRLTFGGGTKVEIK | binds
C68.138 (antibody, V domains shown) VH: EVQLVQSGAEVKKPGESLRISCKGSGYSSTNYWISWVRQMPGKGLEWMGRIDLSDSYTNYSPSFQGHVTISADKSISTAYLQWSSLKASDTAIYYCARLLTTVTTDWFDPWGQGTLVTVSS VL: DIQMTQSPSSLSASVGDRVTITCRASQSISNYLNWYQQKPGKAPKLLIYTASSLQSGVPSRFSGSGSGTDFTLSISSLKPEDFATYFCQQSYNAPPYTFGQGTKLQIK | binds
C68.170 (antibody, V domains shown) VH: QVQLQESGPGLVKPSQTLSLTCTVSGGSISSGGYYWSWIRQHPKKDLEWIGYIYNSGSTYYNPSLKSRVTISIDTTKNQFSLKLSSVTAADTALYYCARSVGAAAQWGGEFDYWGQGTLVTVSS VL: DIQLTQSPSSLSASVGDRVTITCQASQDISNYLNWYQQKPGKAPKLLIYDVFILQAGVPSRFSGSGSGTDFTFTISSLQPEDIATYYCQQYNHLITFGGGTKVEIK | binds
C68.180 (antibody, V domains shown) VH: EVQLVESGGGLVKPGGSLRLSCAASGFTFIDYHMSWIRQAPGKGLEWVSYITTTSSYANYADSVKGRFTISRDNAKNSLFLQMNSLRADDTAVYYCARDRGYDLRFDYWGQGTLVTVSS VL: DIQMTQSPSSLSASVGDRVTITCQASQGISNYLNWYQKKPGKAPKLLIYDASNLKTGVPSRFSGSGSGTDFTFTISSLQPEDIATYYCQQYDSLPLTFGGGTKVEIK | binds
C68.194 (antibody, V domains shown) VH: QVQLVQSGAELKRPGASVKVSCKAPGHTFTIYAMHWVRQAPGQRPEWMGWINAGNGDTKYSQKFQGRVTITRDTSASTAYMELSSLRSEDTAVYYCATSGSLRFQVDYFDHWGQGTLVTVSS VL: DIQLTQSPSTLSASVGDRVTITCRASQSISSWLAWYRQKPGKAPKLLIYDASNLESGVPSRFSGSGSGTEFTLTISSLQPDDFATYYCQQYNSYPWTFGQGTKVEIK | binds
C68.220 (antibody, V domains shown) VH: QVQLLQSGAEVKKPGASVKVSCKASGYTFTIYAMHLVRQAPGQRLEWMGWINTGNGDTKYSQKFQGRVTITRDTSASTAYMELSSLRSEDTAVYYCAISGSRHFQVDYFDYWGQGTLVTVSS VL: DIQMTQSPSTLSASVGDRVTITCRASQSISRWLAWYQQKPGKAPKLLIYDASSFESGVPSRFSGRGSGTEFTLTISSLQPDDFATYYCQQYKSYPWTFGQGTKVEIK | binds
C68.225 (antibody, V domains shown) VH: EVQLVQSGAEVKKPGESLRISCKGSGYSFTNYWISWVRQMPGKGLEWMGRIDPSDSYTDYSPSFQGHVTISTDKSISTAYLQWSSLKASDTAMYYCARPRGIAAVGTGYNWLDPWGQGTLVIVSS VL: DIQMTQSPSTLSASVGDRVTITCRASQSINSWLAWYQQKPGKAPKLLIYDASSLESGVPSRFSGSGSGTEFTLTISSLQPADFATYYCQQYNALYTFGQGTKLEIK | binds
C68.236 (antibody, V domains shown) VH: QVQVVQSGAELKKPGASVKVSCKAPGHTFTIYAMHWVRQAPGQRLEWMGWINAGNGDTKYSQKFQGRVTITRDTSASTAYMELSSLRSEDTAVYYCASSGSRRFQVDYFDYWGQGTLVTVSS VL: DIQLTQSPSTLSASVGDRVTITCRASQSIRSWLAWYQQKPGKAPKLLIYDASSLESGVPSRFSGSGSGTEFTLTISSLQPDDFATYYCQQYNSYPWTFGQGTKVEIK | binds
C68.256 (antibody, V domains shown) VH: QVQLQESGPGLVKPSETLSLTCSVSGGSISSSSSYWGWIRQPPGKGLEWIGNIDYSGSTYYNPSLKSRVTISVDTSKNQFSLKLSSVTAADTAVYFCARGADYGPYFDYWGQGALLTVSS VL: QSALTQPASVSGSPGQSITISCTGTSSDVGSYNLVSWYQHHPGKAPKLMIYEVSKRPSGVSNRLSGSKSGNTASLTISGLQAEDEADYYCSSYAGSSTFVVFGGGTKLTVL | binds
C68.263 (antibody, V domains shown) VH: EVQLVESGGGVVQPGRSLRLSCAASGFTFSTYAMHWVRQAPGKGLEWVAVISFDGSNTYYADSVKGRFTISRDNSKNTLYLQMNSLRAEDTAVYYCAKDSYYSDRSDYYWRSYGYFGLWGQGTLVTVSS VL: DIQLTQSPSTLSASVGDRVTITCRASQSISSWLAWYQQKPGKAPKLLIYDASSLESGVPSRFSGSGSGTEFTLTISSLQPDDLATYYCQQYRSYSGTFGQGTKVEIK | binds
C68.279 (antibody, V domains shown) VH: EVQLVQSGAEVKKPGESLKISCKGSGYSFNYYWIGWVRQMPGKGLEWMGIIYPGDSDARYSPSFQGQVTISADKSISTAYLQWSSLKASDTAMYYCGRLVGYSHDLYFDYWGQGTLVTVSS VL: not shown | binds
C68.281 (antibody, V domains shown) VH: QVQLVQSGAEVRKPGASVKVSCKASGYNFTSYYMHWVRQAPGQGLEWMGIINPSDGSASYAQKFQGRVTMTRDSSTSTVYMELSSLRSDDTAVYFCARGGRILQWFPYFFDYWGQGTLVTVSS VL: EIVLTQSPGTLSLSPGERATLSCRASQSVSIRYLAWYQQKPGQAPRLLIYGASSRATGIPDRFSGSGSGTDFTLTISRLEPEDFAVYYCQQYETFGQGTKVEIK | binds
C68.285 (antibody, V domains shown) VH: QVQLVQSGAEVKKPGASVKVSCKASGYTFSNYFMHWVRQAPGQGLEWMGIINPSGVSTSYAQKFQGRITMTRDTSTSTVYMELSSLRSEDTAVYYCAFEMGAAPFDYWGQGTLVTVSS VL: DIQLTQSPSFLSASVGDRVTITCRASQGISSYLAWYQQKPGKAPKVLIYDASTLQSGVPSRFSGSGSGTEFTLTISSLQPEDFATYYCQQLNTYPQGLTFGGGTKVEIK | binds
C68.286 (antibody, V domains shown) VH: QSTLKESGPALVKPTQTLTLTCTFSGFSLSTSGMCVSWIRQPPGKALEWLARIDWDDDKYYSTSLETRLTISKDTSKNQVVLTMTNMDPVDTATYYCARMTVAGPSLDYWGQGTLVTVSS VL: not shown | binds
C68.304 (antibody, V domains shown) VH: EVQLVESGGGVVQPGRSLRLSCAASGFIFSNYDMHWVRQAPGKGLEWVAVIWYDGSNKYYADSVKGRFTISRDNSKNTLYLQMNSLRADDTAMYYCSRHDSGTYYYFDSWGQGTLVTVSS VL: LTVVTQEPSFSVSPGGTVTLTCGLSSGSVSTSYYPSWYQQTPGQPPRTLIYTTITRSSGVPDRFSGSILGNKAALTITGAQGDDESDYYCVLYMGSGNWVFGGGTKLTVL | binds

Target: T1, SARS-CoV-2 RBD subunit (recombinant)
Test: ELISA
Conditions: both partners purified

Binder | binding result
C68.83 (antibody, V domains shown) VH: EVQLVESGGGVVQPGRSLRLSCAASGFIFSSYGMHWVRQAPGKGLEWVAVIWYDGSNKYYADSVKGRFTISRDNSKNTLYLQMNSLRAEDTAVYYCARDDPEVGCSGGSCYYYYDMDVWGQGTTVTVSS VL: SYELTQPPSVSVSPGQTARITCSGDALPKQHAHWYQQKPGQAPVLVIYKDIERPSGIPERFSGSSSGTTVTLTISGVQAEDEADYYCQSADSSVTYVVFGGGTKLTVL | binds
C68.121 (antibody, V domains shown) VH: EVQLVESGGGLVKPGGSLRLSCAASGFTFSDYYMTWIRQAPGKGLEWVSKITNSNSYTHYADSVKGRFTISRDNAKNSLFLHMNSLRAEDTAVYYCARAIWIGYPDDYYMDVWGKGTTVTVSS VL: SYELTQPPSVSVSPGQTARITCSGDTLPNQYVYWYQQKPGQAPVLLIYKDTERPSGIPERVSGSTSGTTVTLTISGVQAEDEADYYCQSADSSGTSFGGGTKLTVL | binds
C68.175 (antibody, V domains shown) VH: EVQLLESGGGLVQPGGSLRLSCAASGFTFSSYAMSWVRQAPGKGLEWVSGISGSGGSTYYADSVKGRFTISRDNSKNTLHLQMNSLRAEDTAVYYCAKGSRWNPDYFDYWGQGTLVTVSS VL: not shown | binds
